Measured values as given in the nanobody polyreactivity screen of Harvey et al. (2022).

experiment: yeast display, Sf9 membrane polyspecificity reagent, FACS + sequencing; frameworks hold sequencing errors
Outline: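 Polyreactivity labels are assigned by the sorting gate from which each nanobody was recovered. The gates were low and high (top ~1%), set on anti-HA fluorescence for expression and streptavidin fluorescence for reagent binding. Before sorting, galactose-induced (36–48 hours) yeast display cells were stained for 1 hour at 4 °C with 10% biotinylated, detergent-solubilized Sf9 membrane reagent.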

Sequence | polyreactivity (PSR sort gate)
QVQLVESGGGLVQAGGSLRLSCAASGFTFWQYDMGWYRQAPGKERELVAAITSSGSRTYYADSVKGRFTISRDNAKNTVYLQMNSLKPEDTAVYYCNTYLRYWVSYSYDYWGQGTQVTVSS | high polyreactivity
QVQLVESGGGLVQAGGSLRLSCAASGFTFWRNALGWYRQAPGKERELVAAISWRGGSTYYADSVKGRFTISRDNAKNTVSLQINSRKPEDTAGYYCNVVYFRYYSGEYDYGGQGTQVTVSS | high polyreactivity
QVQLVESGGGLVQAGGSLRLSCAASGFTFWWYAMGWYRQAPGKERELVAAISSGGSTNYADSVKGRFTISRDNAKNTVYLQMNSLKPEDTAVYYCNKDYYGSPSSYYGYDYWGQGTQVTESS | high polyreactivity
QVQLVESGGGLVQAGGSLRLSCAASGFTFWYYAMGWYRQAPGKERELVAAISWSGVSTYYADSVKGRFTISRDNAKNTVYLQMNSLKPEDTAVYYCNRRARSYADDYWGQGTQVTVSS | high polyreactivity
QVQLVESGGGLVQAGGSLRLSCAASGFTFWYYAMGWYRQAPGKERELVAAITYNGDRTYYADSVKGRFTISRDNAKNTVYLQMNSLKREDTAVYYCAVYLGIRSGTANDYWGQGTQVTVSS | high polyreactivity
QVQLVESGGGLVQAGGSLRLSCAASGFTFWYYAMGWYRQAPGKERELVATITSGDSTKYADSVKGRFTISRDNAKNTVYLQMNSLKPEDTAVYYCAAEKVLPFIGYDYWGQGTQVTVSS | low polyreactivity
QVQLVESGGGLVQAGGSLRLSCAASGFTFWYYTMGWYRQAPGKERELVAAITRSGGRTYYADSVKGRFTISRDNAKNTVYLQMNSLKPEDTAVYDCAAVGNLYYTSHWQYDYWGQGTQVTVSS | high polyreactivity
QVQLVESGGGLVQAGGSLRLSCAASGFTFYANAMGWYRQAPGKERELVAAISWSGGRTYYADSVKGRFTISRDNAKNTVYLQMNSLKPEDTAVYYCAAKRWTTKNGFYEYPYYYWGQGTQVTVSS | high polyreactivity
QVQLVESGGGLVQAGGSLRLSCAASGFTFYAYAMGWYRQAPGKERELVAVISQSGTRTYYADSVKGRFTISRDNAKNTVYLQMNSLKPEDTAVYYCAADTYSPDREYGYWGQGTQVTVSS | high polyreactivity
QVQLVESGGGLVQAGGSLRLSCAASGFTFYDYAMGWYRQAPGKERELVAAISDSGGITYYADSVTGRFTISRDNAKNTVYLQMNSLKPEDTAVYYCAADFATPGPEYDYWGQGTQVTVSW | low polyreactivity
QVQLVESGGGLVQAGGSLRLSCAASGFTFYFYALGWYRQAPGKERELVATITIGGRTNYADSVKGRFTISRDNAKNTVYLQMNSLKPEDTAVYYCAAAYLWISRYSGYDYWGQGTQVTVSS | high polyreactivity
QVQLVESGGGLVQAGGSLRLSCAASGFTFYGNAMGWYRQAPGKERDLVAAITGRAGRTYYADSVKGRFTISRDNSKNTVYLQMNSLKPEDTAVYYCAVQVAQSRTFSTYGYWGQGTQVTVSS | high polyreactivity
QVQLVESGGGLVQAGGSLRLSCAASGFTFYGYAMGWYRQAPGKERELVAAISSSGGRTYYADSVKGRFTISRDNAKNTVYLQMNSLKPEDTAVYYCAADYTSRDYYYWGQGTHVTVSS | high polyreactivity
QVQLVESGGGLVQAGGSLRLSCAASGFTFYIYAMGWYGLAAGKERELVAAINFRGGSTYYADSVKGRFTISRDNAKNTVYLQMNSLKPEDTAVKYCAARSRDKYDYWGQGTQVTVSS | high polyreactivity
QVQLVESGGGLVQAGGSLRLSCAASGFTFYKNTMGWYRPEPGKERELVAAISSSGSSTYYADSVKGRFRISRDNAKNTVYLLMNSLKPEDTAVYYCAAGRFAYHDDYWGQGTQVTVSS | high polyreactivity
QVQLVESGGGLVQAGGSLRLSCAASGFTFYKNTMGWYRQAPGNERELVAAISYRGGTYYADSVKGRFTISRDNAKTTVYLQMNSLKPEDTAVYYCNARYRGKYSSYGFWGHGTQVTVSS | high polyreactivity
